Measurements taken from publication PMC8808184 (2021).

Assays:
hCNTN5 = target: T1, hCNTN5 (Homo sapiens (Human), UniProt O94779); assay: BLI steady state, CNTN FN1-FN3 over biotinylated E1
T1 chain: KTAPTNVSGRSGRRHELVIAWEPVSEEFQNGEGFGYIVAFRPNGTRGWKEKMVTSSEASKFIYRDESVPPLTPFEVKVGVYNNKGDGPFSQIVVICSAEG

hCNTN3 = target: T2, hCNTN3 (Homo sapiens (Human), UniProt Q9P232); assay: as above
T2 chain: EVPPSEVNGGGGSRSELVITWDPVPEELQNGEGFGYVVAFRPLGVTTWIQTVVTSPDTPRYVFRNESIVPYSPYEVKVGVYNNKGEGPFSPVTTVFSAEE

B1: hAPLP2 (protein)
chain: GEFVSDVLLVPEKCQFFHKERMEVCENHQHWHTVVKEACLTQGMTLYSYGMLLPCGVDQFHGTEYVCCPQ
hCNTN5
  Kd: 38.6 µM

B2: hAPLP1 (protein)
chain: GEFVSEALLVPEGCRFLHQERMDQCESSTRRHQEAQEACSSQGLILHGSGMLLPCGSDRFRGVEYVCCPP
hCNTN5
  Kd: 10.9 µM
hCNTN3
  Kd: 9.1 µM
